{"source": "patent US20140308239A1", "about": "(ELEVEN BIOTHERAPEUTICS, published 2014)", "molecules": {"B1": {"name": "P04 (designed binder)", "chain": "APVRSLAFRIWDVNQKTFYLRNNQLVAGYLQGPNVNLEEKFSMSFVQGEESNDKIPVALGLKEKNLYLSCVLKDDKPTLQLESVDPKNYPKKKMEKRFVFNKIEINNKLEFESAACPGWFLCTAMEADQPVSLTNMPDEGVMVTKFTMQFVSS", "notes": "Expressed in E. coli; also called chimeric cytokine domain P04"}, "B2": {"name": "P03 (designed binder)", "chain": "B1 chain with N101I, K102R, I103S, E104D, I105S, N106G, N107P, K108T, L109T, E110S", "notes": "Expressed in E. coli; also called chimeric cytokine domain P03"}, "B3": {"name": "P05 (designed binder)", "chain": "B1 chain with A7N, F8C, A115Q, C116F, G118N, T147Y", "notes": "Expressed in E. coli; also called EBI-005; chimeric cytokine domain P05"}, "B4": {"name": "P07 (designed binder)", "chain": "B1 chain with A7N, F8C, A115Q, C116F, G118N, V141Q, M142D, V143I, K145D", "notes": "Expressed in E. coli"}, "B5": {"name": "P01 (designed binder)", "chain": "APVRSLAFRIWDVNQKTFYLRNNQLVAGYLQGPNVNLEEKIDVSFVQGEESNDKIPVALGIHGGKMCLSCVKSGDETRLQLEAVDPKNYPKKKMDKRFAFIRSDSGPTTSFESAACPGWFLCTAMEADQPVSLTNMPDEGVMVTKFYMQFVSS", "notes": "Expressed in E. coli; In the cell assay, supernatants or lysates containing P01 were used; also called chimeric cytokine domain P01"}, "B6": {"name": "P02 (designed binder)", "chain": "APVRSLAFRIWDVNQKTFYLRNNQLVAGYLQGPNVNLEEKIDVSFVQGEESNDKIPVALGIHGGKMCLSCVKSGDETRLQLEAVDPKNYPKKKMEKRFVFNKIEINNKLSFESAACPGWFLCTAMEADQPVSLTNMPDEGVMVTKFYMQFVSS", "notes": "Expressed in E. coli; also called chimeric cytokine domain P02"}, "B7": {"name": "P06 (designed binder)", "chain": "APVRSLNCTLWDVNQKTFYLRNNQLVAGYLQGPNVEQQVVFSMSFVQGEESNDKIPVALGLKEKNLYLSCVLKDDKPTLQLESVDPKNYPKKKMEKRFVFNKIEINNKLEFESAQFPNWYISTSMEADQPVFLGGTKGGQDITDFTMQFVSS", "notes": "Expressed in E. coli"}}, "key": {"[1]": {"biological_target": "IL-1RI on HEK-Blue IL-1β responsive cells (UniProt P14778)"}, "[2]": {"biological_target": "T1, IL-1RI on HEK-Blue IL-1β responsive cells (UniProt P14778 18-569)", "T1 sequence (looked up)": "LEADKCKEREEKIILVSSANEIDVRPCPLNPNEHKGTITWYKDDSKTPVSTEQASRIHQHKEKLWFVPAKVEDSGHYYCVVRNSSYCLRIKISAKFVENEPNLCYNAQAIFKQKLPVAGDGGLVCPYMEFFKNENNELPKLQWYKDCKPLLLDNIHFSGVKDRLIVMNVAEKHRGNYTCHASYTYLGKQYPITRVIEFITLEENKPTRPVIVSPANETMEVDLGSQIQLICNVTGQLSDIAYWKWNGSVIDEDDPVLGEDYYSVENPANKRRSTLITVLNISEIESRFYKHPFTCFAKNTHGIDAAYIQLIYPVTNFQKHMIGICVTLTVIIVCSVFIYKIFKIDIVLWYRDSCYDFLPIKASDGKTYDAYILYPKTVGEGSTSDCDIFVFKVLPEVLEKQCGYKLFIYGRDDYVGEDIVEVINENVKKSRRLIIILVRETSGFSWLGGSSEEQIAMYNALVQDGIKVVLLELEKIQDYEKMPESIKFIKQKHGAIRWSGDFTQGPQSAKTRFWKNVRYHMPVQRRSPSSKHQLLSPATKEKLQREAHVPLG", "test": "cell-based or functional assay"}, "[3]": {"biological_target": "T2, soluble recombinant human IL-1RI (corresponding to the extracellular domain of IL-1RI) (human, UniProt P14778 18-336)", "T2 construct": "extracellular domain", "T2 sequence (looked up)": "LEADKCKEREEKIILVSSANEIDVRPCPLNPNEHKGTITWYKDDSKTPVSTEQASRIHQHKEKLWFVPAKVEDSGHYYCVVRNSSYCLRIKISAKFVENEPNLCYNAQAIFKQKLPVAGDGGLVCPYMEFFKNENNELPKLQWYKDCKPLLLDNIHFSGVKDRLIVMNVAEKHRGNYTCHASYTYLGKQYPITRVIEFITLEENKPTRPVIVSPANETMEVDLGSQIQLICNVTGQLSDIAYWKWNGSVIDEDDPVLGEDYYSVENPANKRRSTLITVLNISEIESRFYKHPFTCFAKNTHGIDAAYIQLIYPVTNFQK", "test": "SPR (Reichert SR7000DC), soluble recombinant human IL-1RI, PBS with 0.005% Tween 20", "description": "The binding properties of proteins for soluble recombinant human IL-1RI (corresponding to the extracellular domain of IL-1RI) were evaluated using surface plasmon resonance with a Reichert SR7000DC Dual Channel SPR system. Binding was evaluated in phosphate buffered saline with 0.005% Tween 20. […] Thus, the P01 protein bound to IL-1RI with a greater affinity than did IL-1β under similar conditions."}, "[4]": {"biological_target": "T1, IL-1RI on HEK-Blue IL-1β responsive …", "test": "cell-based or functional assay", "remark": "listed apart in the source"}, "[5]": {"biological_target": "T1, IL-1RI on HEK-Blue IL-1β responsive …", "test": "cell-based or functional assay", "remark": "listed apart in the source"}}, "note": "Where a chain is given by its changes, count along the chain named."}
{"molecule": "GUS (enzyme)", "values": [{"measurement": "OD650 (SEAP reporter of HEK-Blue IL-1β cells, agonism test, negative control; amount of protein not given)", "setting": "[1]", "value": 0.06, "unit": "OD650"}]}
{"molecule": "B1", "values": [{"measurement": "IC50 (read off the curve); HEK-Blue IL-1β SEAP reporter, IL-1β 0.1 ng/ml, lysate with untagged P04, concentration estimated", "setting": "[2]", "value": "~6", "unit": "ng/mL"}, {"measurement": "Kd", "setting": "[3]", "value": 1.71, "unit": "nM"}]}
{"molecule": "B2", "values": [{"measurement": "IC50 (read off the curve); HEK-Blue IL-1β SEAP reporter, IL-1β 0.1 ng/ml, lysate with untagged P03, concentration estimated", "setting": "[2]", "value": "~2", "unit": "ng/mL"}, {"measurement": "Kd", "setting": "[3]", "value": 0.29, "unit": "nM"}, {"measurement": "koff", "setting": "[3]", "value": 0.0012, "unit": "s⁻¹"}, {"measurement": "kon", "setting": "[3]", "value": "4.1e+06", "unit": "M⁻¹ s⁻¹"}]}
{"molecule": "B3", "values": [{"measurement": "IC50, antagonism of IL-1β activity in the HEK-Blue IL-1β SEAP reporter assay", "setting": "[4]", "value": "< 5", "unit": "ng/mL"}, {"measurement": "Kd", "setting": "[3]", "value": 0.012, "unit": "nM"}, {"measurement": "koff", "setting": "[3]", "value": "4.15e-05", "unit": "s⁻¹"}, {"measurement": "kon", "setting": "[3]", "value": "3.47e+06", "unit": "M⁻¹ s⁻¹"}]}
{"molecule": "B4", "values": [{"measurement": "OD650 (SEAP reporter of HEK-Blue IL-1β cells, agonism test, protein alone; amount of protein not given)", "setting": "[5]", "value": 0.222, "unit": "OD650"}, {"measurement": "Kd", "setting": "[3]", "value": 92.6, "unit": "nM"}, {"measurement": "koff", "setting": "[3]", "value": 0.00146, "unit": "s⁻¹"}, {"measurement": "kon", "setting": "[3]", "value": 15800, "unit": "M⁻¹ s⁻¹"}]}
{"molecule": "B5", "values": [{"measurement": "OD650 (SEAP reporter of HEK-Blue IL-1β cells, agonism test, protein alone; amount of protein not given)", "setting": "[5]", "value": 0.061, "unit": "OD650"}, {"measurement": "IC50 (read off the curve); HEK-Blue IL-1β SEAP reporter, IL-1β 0.1 ng/ml, lysate with untagged P01, concentration estimated", "setting": "[2]", "value": "~1", "unit": "ng/mL"}, {"measurement": "Kd", "setting": "[3]", "value": 0.47, "unit": "nM"}, {"measurement": "koff", "setting": "[3]", "value": "2.32e-05", "unit": "s⁻¹"}, {"measurement": "kon", "setting": "[3]", "value": 49300, "unit": "M⁻¹ s⁻¹"}]}
{"molecule": "B6", "values": [{"measurement": "IC50 (read off the curve); HEK-Blue IL-1β SEAP reporter, IL-1β 0.1 ng/ml, lysate with untagged P02, concentration estimated", "setting": "[2]", "value": "~1", "unit": "ng/mL"}, {"measurement": "Kd", "setting": "[3]", "value": 0.636, "unit": "nM"}, {"measurement": "koff", "setting": "[3]", "value": "2.16e-05", "unit": "s⁻¹"}, {"measurement": "kon", "setting": "[3]", "value": 33900, "unit": "M⁻¹ s⁻¹"}]}
{"molecule": "B7", "values": [{"measurement": "OD650 (SEAP reporter of HEK-Blue IL-1β cells, agonism test, protein alone; amount of protein not given)", "setting": "[5]", "value": 1.78, "unit": "OD650"}, {"measurement": "Kd", "setting": "[3]", "value": 0.41, "unit": "nM"}, {"measurement": "koff", "setting": "[3]", "value": 0.0017, "unit": "s⁻¹"}, {"measurement": "kon", "setting": "[3]", "value": "4.8e+06", "unit": "M⁻¹ s⁻¹"}]}
